Laboratory results published in publication PMC4823666, “Characterization of a temperature-responsive two component regulatory system from the Antarctic archaeon, Methanococcoides burtonii” (Scientific Reports, 2016).

Biological target: the molecule itself
Assay: SEC; purified LtrK cytoplasmic domain; oligomeric state by size exclusion chromatography; data not shown

B1: LtrK (low temperature responsive sensor kinase, Mbur_0694), soluble cytoplasmic domain, residues 323-592 (domain or fragment, Methanococcoides burtonii, UniProt Q12Y17 323-592, looked up)
chain: NKTLEDEVKSKTSELERSNDYLQNANKKLKELDRLKNDFVSMVSHELKTPLTAMKTSSEFLRESECSREIKEEMLDLIIRNIDRQARMVDDLLDISRIESGKMKFTPEDVNIKEIIEISLHNVTKHAKDKSIKIMVNCPDDVPAISTDKDKLIRIFVNLLTNAIKFTPEEGEVTVIVEDHEDYLQTSIKDNGIGILEEKRDKIFDKFYQVDSTATRKAGGTGLGLAIIKGIIDGQGGKIYLESETGKGSTFTFRLPKELKEDDFTEIEGT
notes: LtrK (Mbur_0694) sensor kinase of Methanococcoides burtonii, cytoplasmic domain (HisKA and HATPase domains), residues 323-592; the N-terminal region with the transmembrane domains was deleted; A Tev site lies between GST and LtrK; Both the GST fusion (~59 kDa) and the GST-cleaved protein (~31 kDa) were purified; also called GST-LtrK; SK; source: E. coli BL21 (DE3), solubilised with Triton X-100 …
stoichiometry N: 2
